From US20090035300A1 (published 2009)

Target: FLAG-CtBP1 (full-length CtBP1 in pFLAG-CMV-2), expressed in 293 HEK cells (UniProt Q13363 1-440)
Test: co-immunoprecipitation from transfected 293 HEK cells
Protocol: 293 HEK cells (8×10⁵) were plated in 6-well plates and transfected with 10 μl Lipofectamine 2000 (Invitrogen Life Technologies) and 1 μg of DNA. Cells were harvested one day after transfection. THP-1 cells (4×10⁶) were brought to a final volume of 0.8 ml and electroporated with 20 μg of DNA in total. Electroporation took place in a 0.2-cm cuvette (Bio-Rad) at 300 V and 960 μF. Day 6 immature human Mo-DCs were transduced with Ad5fib35hDC-SCRIPT-green fluorescence protein (GFP) at a multiplicity of infection of 1000 as described previously (Crucell, Leiden, the Netherlands) (Havenga, M J E et al. (2002) J. Virol. 76, 4612-4620.).
Whole cell lysates were prepared in 1% SDS standard lysis buffer. Equal amounts of protein were separated by SDS-PAGE electrophoresis and proteins were transferred to Protran Nitrocellulose Transfer Membrane (Schleicher and Schuell BioScience). The following primary antibodies were used; Mouse anti-GFP (0.04 μg/ml; Roche), mouse anti-myc (0.2 μg/ml; Invitrogen Life Technologies), M2 mouse anti-FLAG 1 μg/ml (Sigma-Aldrich), mouse anti-Epstein-Barr Virus (anti-EBV) mAb, BZLF1 Protein, ZEBRA, clone BZ.1 (DakoCytomation) in combination with a second HRP conjugated Goat anti-Mouse IgG (H+L) antibody (0.4 μg/ml; Pierce). Inmmunoprecipitation was performed in a standard RIPA/1% Triton X-100 buffer for 3 h at 4° C., using protein G beads. […]

Row | Binder | binding result
1 | YFP fusion of the acidic region of DC-SCRIPT with both motifs mutated (L593A and L648A) (pEYFP-C1), expressed in 293 HEK cells (other, also called Ac/double mut; not shown: yellow fluorescence protein (YFP) encoded by pEYFP-C1) EQEEPFDASQKRRAKVPVFQSDGESAQGSHCHEEEEEDNCYEVEPYSPGLAPQSQQLCTPEDASTKSEHAPEVLEEACKEEKEDASKGEWEKRSKGDLGAEGGQE | no binding
2 | YFP fusion of the acidic region of DC-SCRIPT with the first motif mutated (L593A) (pEYFP-C1), expressed in 293 HEK cells (other, also called Ac/mut1; not shown: yellow fluorescence protein (YFP) encoded by pEYFP-C1) EQEEPFDASQKRRAKVPVFQSDGESAQGSHCHEEEEEDNCYEVEPYSPGLAPQSQQLCTPEDLSTKSEHAPEVLEEACKEEKEDASKGEWEKRSKGDLGAEGGQE | no binding
